In the supplement of paper PMC9170038:

System: MS2 coat protein
Assay: apparent KD of MS2 coat protein; designed switch direction (-1 OFF switch, 1 ON switch): -1; higher = weaker reporter binding
Outline: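 SNAP-549-labelled MS2 coat protein was titrated, doubling from 0.7 or 1.5 nM to 3 µM, over designed RNA switches transcribed on Illumina chips by stalled E. coli RNA polymerase. Runs were done without input, with 200 uM small-molecule ligand, or with an oligonucleotide input. Apparent KD is the per-design median over clusters of curve-fitted normalised fluorescence.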

[1] = Eterna round: R95, input ligand: FMN 200 uM
[2] = Eterna round: R95, input ligand: microRNA oligo, concentration not stated
[3] = Eterna round: R95, input ligand: none
[4] = input ligand: microRNA oligo, concentration not stated

Sequence	apparent KD of MS2 coat protein [2] [nM]	apparent KD of MS2 coat protein (input ligand: FMN 200 uM) [nM]	apparent KD of MS2 coat protein (input ligand: none) [nM]	other results
UACGGGUCAGGAUAUGCGAGGGAGUGGGAAAUAGGAAGGUAGCAGAAGGGACAUGAGGAUCACCCAUGUAAGGA [JR_Exclu4_Sub0100] (puzzle: Exclusion 4)	31.2	–	–	apparent KD of MS2 coat protein [1]: 38.5 nM; apparent KD of MS2 coat protein [3]: 34.6 nM
UAUUAAACAAGCGGAUCCCACAUGAGGAUCACCCAUGUGCUCGUCUUAUAAGGUACUGUGACGAAAGUCACGGUACC [Sensor 3, v1 - 91 v13] (Eterna round: R97, puzzle: Sensor, turn-off variant 1)	–	25	28.9	–
GAGUGGCAAGGAUAUACAGUGGAGAGGAUGGCAAGAGGUGGACAUGAGGAUCACCCAUGUAGAAGGUGCAGAGA [JR_Exclu2_Sub024] (puzzle: Exclusion 2)	150	–	–	–
AAUAAUAAGGAGGAUAUCGUAUCGGAAACGAUACGAGAAGGCCUAACAUGAGGAUCACCCAUGUUCCUUAAUAA [Fiskers Ex 6 - 4] (puzzle: Exclusion 6)	22	–	–	apparent KD of MS2 coat protein [1]: 33.3 nM; apparent KD of MS2 coat protein [3]: 18.2 nM
CCGGAAAUAGAGGAUAUAGGACUGGAUACAGUCCUAGAAGGCUAUACAUGAGGAUCACCCAUGUGUCCUACCGG [Fiskers Ex 6 - 63] (puzzle: Exclusion 6)	14.1	–	–	–
UUACGGCGGAGAGGAUAUCCGAAAGGAAGUGUAGGAGAAGGCUCCAGUUGUACAUGAGGAUCACCCAUGUGAUCCUUUCCGAAA [PowerStrip EXNG 1.25] (Eterna round: R96, puzzle: Exclusion NG 1)	–	2040	126	apparent KD of MS2 coat protein [4]: 79.7 nM
AGGUAACAUGAGGAUCACCCAUGUCAGGAUAUCAUAAAGAUUAGAUUAGAGAAGAGGUUGAGAAGGGACUAUAU [Excluse me! 17- Jieux - Exclusion 1] (puzzle: Exclusion 1)	41.9	–	–	–
UUAAUUAAUUUAAUAUAAGAUCACAUGAGGAUCACCCAUGUAUAGGAUAUCAGCUCGUGUAGAGCUGAGAAGGAUACAUAAUAU [ExNG3/2-B3] (Eterna round: R96, puzzle: Exclusion NG 3)	–	105	155	apparent KD of MS2 coat protein [4]: 161 nM
CGUAGCAAAGUGAGGAUAUCUAGAGCCUCGGCUCUAGAGAAGGCACAUGAGGAUCACCCAUGUGAUUAGCUACG [BmEx4/9-A2] (Eterna round: R97, puzzle: Brourd's mod of Exclusion 4)	–	173	24.1	–
AAAGAGCGAGGAUAUACGUAUCGGUGCGGCCCGCCGAUGUGACAUGAGGAUCACCCAUGUAGAAGGCGCAGAAA [Excls2-X] (puzzle: Exclusion 2)	21.3	–	–	–
AAUGUCUGAGGAUAUCGUUUUUUGUACAUGAGGAUCACCCAUGUCCAAUUUUGUAUAUUACGAGAAGGCAGUGGAA [JR_E5_Sub089] (puzzle: Exclusion 5)	14.6	–	–	–
ACCUCACAUGAGGAUCACCCAUGUUAGGAUAUCUCGGCGCCCUGCAGGCAGUGGCACCAGAGAAGGAACGUGCA [Xeindiisti] (puzzle: Exclusion 1)	20.4	–	–	–
UUGCUCGUCUUGCUUCCUAACAUGAGGAUCACCCAUGUCGACGGUGAGACGCAAGAGCCAUCUCGCCGUUGAUCGUC [Eternabot (Original) Solution 4] (Eterna round: R97, puzzle: Sensor, turn-off variant 1)	–	134	159	–
CUCAGACAUGAGGAUCACCCAUGUGAGGAUAUGAUGCAGCAGUGGUCUACGCUGUGCAUCAGAAGGCACAUGUG (puzzle: Exclusion 1)	33	–	–	–
CAGUACUGAGGAUAUACAUGAGGAUCACCCAUGUGUUCCAGCUAGGAGACUAGCAAAUGUAGAAGGCAGUACUG [jl-ex3-4.02 salish99 mod] (Eterna round: R97, puzzle: Exclusion 3)	–	615	406	–
AUGGGUCCUCUCGGAGCGACAUGAGGAUCACCCAUGUGUGUUGAGGAUAUCCACUGCUAAGGACGGGAGAAGGCAGUGUACUGU [Ex NG3 #85] (Eterna round: R96, puzzle: Exclusion NG 3)	–	29.8	32.9	apparent KD of MS2 coat protein [4]: 23.5 nM
AGCUAGUGAGGAUAUACAAGAAUAUAAACGAACAUAAAGGGACAUGAGGAUCACCCAUGUAGAAGGCACUAGCA [Diamond 73] (Eterna round: R96, puzzle: Exclusion 2)	–	–	–	apparent KD of MS2 coat protein [4]: 29.3 nM
AUAAAGUGAGGAUAUAUAAGACACGGUGAUACACCGUGAAAAUAGAAGGUACAUGAGGAUCACCCAUGUAGGGC [Mod of Anonveat 18 - Jieux - Exclusion 4] (Eterna round: R97, puzzle: Exclusion 4)	–	33.6	29.4	–

Sequence	apparent KD of MS2 coat protein [2] [nM]	apparent KD of MS2 coat protein (input ligand: FMN 200 uM) [nM]	apparent KD of MS2 coat protein (input ligand: none) [nM]	other results
CAUACUAAAGUCAGGAUAUGCGGUCGAAUACGGGUGUAGAAGGGACAUGAGGAUCACCCAUGUAGAUAGUAAAG [EX-4 Malc #18] (puzzle: Brourd's mod of Exclusion 4)	90.2	–	–	apparent KD of MS2 coat protein [1]: 93.1 nM; apparent KD of MS2 coat protein [3]: 129 nM
CUAAGUCGAGGAUAUGCAUGGUGACAUGAUGCCGAUGCACGACAUGAGGAUCACCCAUGUAGAAGGCGACUUAG [Eternabot (L2) Solution 50] (Eterna round: R97, puzzle: Exclusion 2)	–	8.04	835	–
GAAAACGAUGAGGAUAUAUGAUAUCAAAGCAUCAUAGAAGGCAUCACAUGAGGAUCACCCAUGUGAUCUUCUUG [Mat - Exclusion 6 - JL Mod - D31] (Eterna round: R97, puzzle: Exclusion 6)	–	164	26.6	–
GGUUGUUUUUUCCUUUCUUACAUGAGGAUCACCCAUGUUUCUUGUCGUGCUCGCGUUGCUCGUCUGUCUGUCUGUUG [salish99_TOv1_r3_074] (puzzle: Sensor v3, turn-off variant 1)	36.6	–	–	apparent KD of MS2 coat protein [1]: 49.9 nM; apparent KD of MS2 coat protein [3]: 55.6 nM
ACCAGCAUACGGAGAUCCAACAUGAGGAUCACCCAUGUCUGGAAAGCUUUUUGCUUGUCUUAUCCUCCUCUGUGUGC [Design #2] (Eterna round: R97, puzzle: Sensor, turn-off variant 1)	–	17.5	16.6	–
CCAUAUAACUGAGGAUAUACUCACCACUAACAUGUAGAAGGCAGACAUGAGGAUCACCCAUGUGAUUUCUCAAUAUUAUACAUC [Prohibition 75 - Jieux - Exclusion NG 1] (Eterna round: R96, puzzle: Exclusion NG 1)	–	–	–	apparent KD of MS2 coat protein [4]: 500 nM
GGUGCGUAUGUGAGGAUAUGCUGGUCCUUGGAUCGGCAGAAGGCACAUGAGGAUCACCCAUGUGGUGUCGUACU [salish99_Bmod_ex4_082] (puzzle: Brourd's mod of Exclusion 4)	173	–	–	–
UUGGUGUCAGGAUAUGCUUAAUAUAUUUUAUUAUAAUAUAUACAUGAGGAUCACCCAUGUAGAAGGGACAUUGU [LRO-Excl2-07-Fireball XL5] (Eterna round: R97, puzzle: Exclusion 2)	–	30.2	45.8	–
GGGUGACAUGAGGAUCACCCAUGUCAGGAUAUGCUUCGGCUUCGGAAAUGAAGUUGAAGUAGAAGGGACUGCCC [-30.1, -29.1 kcal, A 27% sequence 3 bis] (Eterna round: R97, puzzle: Exclusion 1)	–	84.4	42.2	–
UACUUAUGAGUCAGGAUAUGUGAGGCGGAAGCGAUACAGAAGGGACAUGAGGAUCACCCAUGUUGGGUUCCUGU [Eternabot (Original) Solution 32] (Eterna round: R97, puzzle: Brourd's mod of Exclusion 4)	–	526	83.5	–
CAGCUGAAAGUGAGGAUAUCGACUGCUUCGGCAGUCGAGAAGGCACAUGAGGAUCACCCAUGUCUCAACAGCUG [BmEx4/1-A4] (Eterna round: R97, puzzle: Brourd's mod of Exclusion 4)	–	70.3	20.7	–
AUUAUAAAUGUAGGAUAUCUGCACGUUUAGUGCAGAGAAGGACAUGAGGAUCACCCAUGUAGAUCAAUAAUAAUUAAUUUAAUU [ENG1/5-B2] (Eterna round: R96, puzzle: Exclusion NG 1)	–	146	33.7	apparent KD of MS2 coat protein [4]: 29.1 nM
GGAAAAUGAGGAUAUACAUGUUUGAUACCUCUACGCCCGCAACAUGAGGAUCACCCAUGUAGAAGGCAUGAAAA [Marius] (puzzle: Exclusion 2)	13.9	–	–	–
CAUACUGAAGUUAGGAUAUUCGAACGUAUACGGAUGGAGAAGGGACAUGAGGAUCACCCAUGUAGAUAGUAAAG [EX-4 Malc #11] (puzzle: Brourd's mod of Exclusion 4)	21.5	–	–	apparent KD of MS2 coat protein [1]: 23.1 nM; apparent KD of MS2 coat protein [3]: 23.1 nM
UGCCUAGCAGGAUAUGCUCGGGAUUACAUGAGGAUCACCCAUGUGACUGAUUGUUGUCUUGCAGAAGGGCUAGGGA [JL-EX5-4.05 ViennaUCT mod] (Eterna round: R97, puzzle: Exclusion 5)	–	443	99.7	–
UCCUGUUAUGUUAGGAUAUCUGGUUCGACUCGAACAGAGAAGGAACAUGAGGAUCACCCAUGUCCCGGUGAUAA [Eternabot (L2) Solution 19] (Eterna round: R97, puzzle: Brourd's mod of Exclusion 4)	–	85.6	33.1	–
AUAUAACAUGAGGAUCACCCAUGUCAGGAUAUGCAGAACAAGAACAAGACAAGACAGAGCAGAAGGGACAAUAU [Ex 1 M4] (puzzle: Exclusion 1)	34.9	–	–	apparent KD of MS2 coat protein [1]: 43.8 nM; apparent KD of MS2 coat protein [3]: 48.1 nM
UAGGAGUCAGGAUAUGCGAGAGAUGGAAGUAAGGGAUGAGAGCAGAAGGGACAUGAGGAUCACCCAUGUAAGGA [JR_Exclu4_Sub091] (puzzle: Exclusion 4)	37.2	–	–	–
